Experimental data: patent US20200148768A1 (STCUBE, published 2020)

T1: human BTN1A1 wild type, expressed on cells (human, UniProt Q13410 27-526, glycosylated at N55 and N215 (extracellular))
T1 construct: also as whole-cell lysate in western blots; also called BTN1A1 WT
T1 sequence: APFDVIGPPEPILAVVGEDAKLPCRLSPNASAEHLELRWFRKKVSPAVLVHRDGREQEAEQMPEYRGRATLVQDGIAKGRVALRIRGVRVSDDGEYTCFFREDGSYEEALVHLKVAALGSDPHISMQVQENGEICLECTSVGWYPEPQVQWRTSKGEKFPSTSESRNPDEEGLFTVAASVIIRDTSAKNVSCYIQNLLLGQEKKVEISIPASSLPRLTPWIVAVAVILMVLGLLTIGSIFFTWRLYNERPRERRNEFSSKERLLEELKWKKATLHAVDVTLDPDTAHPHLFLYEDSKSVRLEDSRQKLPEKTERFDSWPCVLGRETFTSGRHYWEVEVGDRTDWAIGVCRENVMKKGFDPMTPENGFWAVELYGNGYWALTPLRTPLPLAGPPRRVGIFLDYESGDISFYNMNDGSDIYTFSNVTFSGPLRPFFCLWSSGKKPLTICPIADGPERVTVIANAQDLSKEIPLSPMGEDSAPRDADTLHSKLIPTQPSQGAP

T2: mouse BTN1A1-ECD-Fc (mouse; human, UniProt Q62556 27-247)
T2 construct: also called human IgG1-Fc-tagged mouse BTN1A1-ECD (dimer); mBTN1A1-Fc
T2 chain: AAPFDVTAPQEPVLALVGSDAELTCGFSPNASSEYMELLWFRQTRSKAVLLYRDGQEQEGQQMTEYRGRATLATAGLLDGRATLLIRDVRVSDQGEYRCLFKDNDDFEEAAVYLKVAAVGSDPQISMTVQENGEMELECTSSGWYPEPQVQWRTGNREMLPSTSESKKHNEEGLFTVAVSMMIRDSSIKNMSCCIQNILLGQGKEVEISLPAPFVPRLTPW

T3: human BTN1A1-ECD-His6 (human, UniProt Q13410 27-242, N-glycosylated (PNGase F sensitive))
T3 construct: also called BTN1A1-His; hBTN1A1-His
T3 sequence: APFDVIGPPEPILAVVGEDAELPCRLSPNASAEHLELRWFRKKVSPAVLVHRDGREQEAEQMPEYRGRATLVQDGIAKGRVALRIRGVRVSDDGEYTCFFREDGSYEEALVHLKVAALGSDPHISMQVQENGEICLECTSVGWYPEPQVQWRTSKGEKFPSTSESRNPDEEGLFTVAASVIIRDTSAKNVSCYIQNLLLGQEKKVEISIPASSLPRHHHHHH


What was measured:
human BTN1A1-ECD-Fc [1] = target: T4, human BTN1A1-ECD-Fc (human, N-glycosylated (PNGase F sensitive)); assay: direct ELISA, coated BTN1A1-Fc, native Ag
T4 construct: also called BTN1A1-Fc; hBTN1A1-Fc
Experimental: In order to exclude the possibility that the observed binding was due to human Fc binding, ELISA was performed using human BTN1A1-Fc and human IgG1 control. The antigens BTN1A1-Fc and human IgG1 were coated onto ELISA plate. Antibodies were added to each well and binding was for each antibody determined by standard direct ELISA against the antigens. Human IgG1 binding antibodies were excluded from the candidates.

[2] = target: T1, human BTN1A1 wild type, expressed on …; assay: FACS, HEK293T overexpressing BTN1A1, FITC secondary
Experimental: To identify anti-BTN1A1-Fc MAbs that were specific for and which preferentially bound human BTN1A1-Fc antigen, different types of assays were performed. In a screening assay to detect preferential binding of MAbs to BTN1A1, antibody binding was determined based on the measurement of fluorescence intensity through FACS analysis (using cell membrane bound proteins). By way of example, the assay was performed using the HEK293T human embryonic kidney cell line. Illustratively, HEK293T cells overexpressing BTN1A1 were incubated with anti-BTN1A1 antibodies existing in hybridoma culture supernatant. After washing, secondary antibodies conjugated with FITC were added as detection agent. Fluorescence intensity (measured fluorescence intensity, MFI) was measured via FACS I flow cytometry analysis to assess the relative binding of the anti-BTN1A1 antibodies to membrane bound BTN1A1 WT on cells. […] Based on the binding analysis, sixty seven candidate MAb-producing hybridomas were selected, grown in ADCF medium, and their supernatant containing monoclonal antibody was concentrated and purified.

human BTN1A1-ECD-Fc [3] = target: T4, human BTN1A1-ECD-Fc; assay: Octet BLI, anti-mouse Fc capture
Experimental: Using a biosensor coated with anti-mouse Fc capture antibody, KD was determined by Kon and Koff. Antibodies with higher affinity (nanomolar range) were selected. Epitope binning is also used to categorize the epitope binding characteristics of panels of antibodies against a single target. This epitope binning experiment was designed to determine whether two different antibodies bind to the same epitope. If two antibodies bind to the same epitope of the antigen, then the binding of the first antibody will preclude the binding if the second antibody. If each antibody in a tested pair binds to a completely independent epitope, then binding of the first antibody will have no effect on the binding of the second. Through repeated testing, the antibodies are grouped according to epitope binding specificity. This experiment was performed using the Octet Red96 System (Pall ForteBio) with Bio-Layer Interferometry (BLI) to detect and analyze the interaction of biological molecules. Antigen was bound to the disposable sensors, then additional binding of antibody to the antigen was measured by change in delay of the reflection of the light passing through the sensor. A longer delay is indicative of more mass bound to the sensor, and this value is used to determine the degree of protein-antibody interaction.

human BTN1A1-ECD-Fc [4] = target: T4, human BTN1A1-ECD-Fc; assay: direct ELISA, coated BTN1A1-Fc, denatured Ag
mouse BTN1A1-ECD-Fc = target: T2, mouse BTN1A1-ECD-Fc; assay: SPR (Biacore X-100), antibody captured on chip, mouse BTN1A1-ECD-Fc 2-64 nM
Experimental: The binding affinity between BTN1A1 and monoclonal anti-BTN1A1 antibodies STC1011, STC1012, and STC1029 was measured by Surface Plasmon Resonance (BIAcore™). Sensorgrams and saturation curves of antibody titrations of with human IgG1-Fc-tagged mouse BTN1A1-ECD (dimer) were recorded.
An Protein capture chip (BIAcore™) was coated with STC1011, STC1012, STC1029, or a control IgG1 antibody. No interaction between the IgG1 control and mouse BTN1A1-His was observed. Mouse BTN1A1-ECD-Fc was injected into the microfluidic channel on a Biacore™ X-100 instrument. KD values were obtained using fitting tools of the BIAevaluation software (BIAcore). FIGS. 29A-C provide sensograms showing real-time binding of dimeric BTN1A1-ECD-Fc (2-64 nM with 2-fold dilution) to immobilized STC1011, STC1012, and STC1029.

[5] = target: T1, human BTN1A1 wild type, expressed on …; assay: FACS, 293T BTN1A1 WT against 2NQ
Experimental: The glyco-specificity of monoclonal anti-BTN1A1 antibodies was characterized by dot blot analysis. Each anti-BTN1A1 mAb (0.5 μg/well loaded) was tested for binding to glycosylated BTN1A1 (PNGaseF “−”) or deglycosylated BTN1A1 (PNGaseF “+”). Non-specific antibody controls (“IgG,” 0.25 μg/well loaded) was also included in the assay. As shown in FIGS. 19A-19B, both glycosylated BTN1A1 protein and non-glycosylated BTN1A1 (BTN1A1 protein treated with PNGase F) were coated on the solid phase and tested for mAb and antigen binding affinity. […] The glyco-specificity of monoclonal anti-BTN1A1 antibodies was also characterized by FACS analysis. […] After further washing, fluorescence intensity (MFI) was measured to assess relative binding of antibodies to membrane-bound glycosylated or unglycosylated BTN1A1. […] See, e.g., FIGS. 21A-C and Table 16.

human BTN1A1-ECD-Fc [6] = target: T4, human BTN1A1-ECD-Fc; assay: SPR (Biacore), antibody on mIgG capture chip, BTN1A1-ECD-Fc 2-64 nM
Experimental: (§1) An mIgG capture chip (BIAcore™) was coated with antibody with 600 response units (RU) and BTN1A1-ECD was injected into the microfluidic channel. KD values were obtained using fitting tools of the BIAevaluation software (BIAcore). FIGS. 22A-F provide sensograms showing real-time binding of dimeric BTN1A1-ECD-Fc (2-64 nM with 2-fold dilution; FIGS. 22A, C, and E) or of monomeric BTN1A1-ECD-His (2-64 nM with 2-fold dilution; FIGS. 22B, D, and F) to STC703, STC810, or STC820 immobilized on an mIgG capture CMS chip. Flow cells without any immobilized protein were used as the controls for non-specific binding and control cell signals were subtracted from test cell signals to produce the sensograms shown in FIGS. 22A-F.
(§2) The KD values for BTN1A1-ECD-Fc or BTN1A1-ECD-His binding to STC703, STC810, and STC820 as measured by Biacore assays are provided in Table 17 below.

human BTN1A1-ECD-Fc [7] = target: T4, human BTN1A1-ECD-Fc; assay: SPR (Biacore)
Experimental: as §1, §2

human BTN1A1-ECD-His6 = target: T3, human BTN1A1-ECD-His6; assay: western blot after SDS-PAGE, native lanes (no DTT, no boiling) and reduced lanes (DTT, boiling)
From the text: FIG. 34—Dimer-specific binding of BTN1A1 antibody. FIG. 34 first panel from the left is an image of Coomassie blue stained SDS-PAGE gel, showing locations of monomer and dimer forms of the BTN1A1 protein in both native and reduced conditions along with a size standard. The second through fifth panels show western blots visualizing the monomer and dimer forms of the BTN1A1 protein in both native and reduced conditions using STC810, STC2602, STC2714 and STC 2781 antibody, respectively.
To determine the conformational specificity, Western blot analysis was performed using both dimer form of BTN1A1 (Fc fusion protein extracellular domain of BTN1A1) and monomer form of BTN1A1 (His-tagged protein of extracellular domain of BTN1A1). Proteins were treated with DTT (a reducing agent) and boiling or without reducing and denaturing by boiling. After running the proteins on SDS-PAGE, Western blot was performed by a standard protocol (FIG. 34). In a native condition (without a reducing agent and boiling), STC2714 recognized only Fc fusion protein, a dimerized form of BTN1A1 ECD, but not His-tagged protein, a monomer form of BTN1A1 ECD.

ELISA (Native Ag) (human BTN1A1-ECD-Fc [1])	FACS (MFI) [2]	Kd (human BTN1A1-ECD-Fc [3])	ELISA (Denatured Ag) (human BTN1A1-ECD-Fc [4])	Kd (mouse BTN1A1-ECD-Fc)	koff (mouse BTN1A1-ECD-Fc)	kon (mouse BTN1A1-ECD-Fc)	other results	Binder
1.8	2340	0.436 nM	1.44	–	–	–	–	STC2778 (antibody, V domains shown) VH: QIQLVQSGPELKKPGETVKISCKASGYSFTNYGMNWVKQAPGKGLKWMGWINIYTGETTYGDDFKGRFAFSLETSASTAYLQINNLRSEDTATYFCVRGGTMIMYWGQGTTLTVSS VL: DIVLTQSPATLSVTPGDSVSLSCRASQSISNNLHWHQQKSHESPRLLIKYASQSMSGIPSRFSGSGSGTDFTLSINSVETEDFGMYFCQQSDSWPLTFGAGTKLELK
–	–	–	–	1.69 nM	0.000427 s⁻¹	251000 M⁻¹ s⁻¹	–	STC1029 (antibody, V domains shown, kappa; also called mouse monoclonal anti-mouse BTN1A1 Antibody STC1029) VH: EVQLQQSGPELVKPGASVKISCKASGYSFTGYFMNWVKQSHGKSLEWIGRINPYNGDTFYNQKFKDKATLTVDTSSSTAHMELRSLTSEESAVYYCARWTTVINFDYWGQGTTLTVSS VL: SIVMTQTPKFLLVSAGDRVTITCKASQSVSYDVVWYQQKPGQSPKLLMYYVSNRYTGVPDRFTGSGYGTDFTFTISTVQAEDLAVYFCQQDYSSPPTFGGGTKLEIK
–	–	–	–	4.1 nM	0.000599 s⁻¹	146000 M⁻¹ s⁻¹	–	STC1012 (antibody, V domains shown, kappa; pHrodo-labeled in the internalization assay; also called mouse monoclonal anti-mouse BTN1A1 antibody STC1012) VH: EVMLVESGGALVKPGGSLKLSCAASGFTFSNYVMSWVRQTPEKRLEWVATISSGGSYTNYPDSVKGRFIISRDNARNTLYLQMSSLRSEDTAIYYCVREGDGFYVFDYWGLGTTLTVSS VL: not shown
–	–	–	–	–	–	–	fold MFI on glycosylated over unglycosylated BTN1A1 [5]: ≥ 2 fold; Kd (human BTN1A1-ECD-Fc [6]): 0.92 nM; fold higher affinity than to monomeric BTN1A1-ECD-His (human BTN1A1-ECD-Fc [7]): > 100 fold	STC810 (antibody, V domains shown, mouse monoclonal; kappa; also called mouse monoclonal anti-human BTN1A1 antibody STC810) VH: EVQLQQSGPELVKPGASVKISCKASGYTFTHYNMDWVKQSHGKSLEWIGYIYPSNGGTGYNQKFKSRATLTVDKSSSTAYMELHSLTSEDSAVYYCARGAYHYGSSYAYWYFDVWGAGTTVTVSS VL: DIQMTQTTSSLSASLGDRVTISCSASQDISNYLNWYQQKPDETVKLLISYTSSLHSGVPSRFSGSGSGTDYSLTISNLAPEDIATYYCQQSSKLPFTFGSGTELEIKR
1.39	69.5	2.35 nM	0.128	–	–	–	binding result (human BTN1A1-ECD-His6): no binding	STC2602 (antibody, V domains shown) VH: EVQLQQSGPELVKPGASVKISCKASGFSFIGYYIDWVKQSPGKSLEWIGYIYPSNGETSYHQKCKGKATLTVDKSSSTVNMQLNSLTSEDSAVYYCARYGNYDWFFDVWGAGTTVTVSS VL: QIVLTQSPAIMSASPGEKVTITCSASSSVSYMHWFQQKPGTSPKFWIYSTSNLASGVPIRFSGSGSGTSYSLTISRMEAEDAATYYCQQRSSYPYTFGGGTKLEIK
0.956	841	0.0885 nM	0.418	–	–	–	–	STC2739 (antibody, V domains shown) VH: QVQLKQSGPGLVQPSQSLSITCTVSGFSLTTHGVNWVRQSPGKGLEWLGVIWSGGSTDYNAAFISRLSISKDNSKSQVFFKMNSLQANDTAIYYCARPYYYGAMDYWGQGTSVTVSS VL: QIVLTQSPSIMSASPGEKVTITCSASSSVSYIHWFQQKPGTSPKLWIYSTSNLASGVPARFSGSGSGTSYSLTISRMEAEDAATYYCQQRSIYPLTFGAGTKLELK
